Laboratory results as given in patent publication US20250073303A1, “TDP-43 Interference Peptides, Methods, and Uses Thereof” (The University of British Columbia, priority 2022, published 2025).

Key:
[1] = test system: SH-SY5Y cells; assay: MTT assay of SH-SY5Y cells with ethacrynic acid challenge; assay type: cell-based, human; settings: ethacrynic acid treatment compared with the control group
Procedure: Cell treatment and peptide blocking assay: Ethacrynic acid (EA) (Sigma, Saint Louis, MO) was dissolved in dimethyl sulfoxide (DMSO) at a stock concentration of 100 mM. For SH-SY5Y cells and HEK-293 cells, ethacrynic acid (EA) was added to the culture medium at 1:1000 to reach a final concentration of 100 μM. The treatment was maintained for 24 hours. For mouse cortical neurons, mature cortical neurons of 14 days in vitro (DIV) were used for experiments. Ethacrynic acid (EA) was added to neurons at a concentration of 20 μM for 5 hours. For peptide treatment in cell culture, the peptides were dissolved in double distilled water at a stock concentration of 10 mM and stored at −80° C. The combination of peptides A, B, C and D at equal concentration of 5 μM for each peptide and 20 μM in total was added into cultures of SH-SY5Y cells or HEK-293 cells one hour before ethacrynic acid treatment or pcDNA3.1-FLAG-CK1δ1-317 transfection. […]
MTT assay: The cell viability of SH-SY5Y cells after treatment of Ethacrynic acid (EA) was determined using the MTT assay (Sigma, Saint Louis, MO). Briefly, MTT solution was added to cells for 3-4 hours at 37° C. at the time when the cell viability was determined. […] On the second day, the plate was shaken for 15 minutes in the dark and absorbance at OD=595 nm was read using a plate reader (Envision 2103 Multilabel Reader, Perkin Elmer).

[2] = target: TDP-43 (Homo sapiens, UniProt Q13148); assay: Peptide blocking of TDP-43 phosphorylation and aggregation in HEK293 cells overexpressing pcDNA3.1-FLAG-CK1δ1-317 (western blotting); assay type: cell-based; set-up: Endogenous TDP-43 was highly phosphorylated by active CK-1δ (lacking its regulatory domain); endogenous in cells; host or cells: HEK293 cells transfected with pcDNA3.1-FLAG-CK1δ1-317; settings: HEK293, CK1δ1-317 overexpression
Procedure: Cell treatment and peptide blocking assay: Ethacrynic acid (EA) (Sigma, Saint Louis, MO) was dissolved in dimethyl sulfoxide (DMSO) at a stock concentration of 100 mM. For SH-SY5Y cells and HEK-293 cells, ethacrynic acid (EA) was added to the culture medium at 1:1000 to reach a final concentration of 100 μM. The treatment was maintained for 24 hours. For mouse cortical neurons, mature cortical neurons of 14 days in vitro (DIV) were used for experiments. Ethacrynic acid (EA) was added to neurons at a concentration of 20 μM for 5 hours. For peptide treatment in cell culture, the peptides were dissolved in double distilled water at a stock concentration of 10 mM and stored at −80° C. […] The primary cultured neurons were treated with peptide A, B, C and D mixture (equal concentration for each) at a final concentration of 5 μM and 10 μM.
The plasmids were transfected into HEK293 or SH-SY5Y cells using the Lipofectamine 2000 system. Before transfection, cells were plated at 80˜90% confluence and cultured in DMEM containing 10% fetal bovine serum (FBS). […]
Fractionation of cellular soluble and insoluble proteins: Cells or spinal cord tissue were harvested and lysed in 500 μl RIPA buffer [50 mM Tris-HCl pH 7.4; 150 mM NaCl; 1% NP-40; 0.5% Na-deoxycholate; 1 mM EDTA; 50 mM NaF; 1 mM PMSF and protease inhibitor] on ice. […] All the protein samples were further analyzed by Western immunoblotting. […]

TDP-43, sequence (Q13148 whole entry, the tested form may be a part): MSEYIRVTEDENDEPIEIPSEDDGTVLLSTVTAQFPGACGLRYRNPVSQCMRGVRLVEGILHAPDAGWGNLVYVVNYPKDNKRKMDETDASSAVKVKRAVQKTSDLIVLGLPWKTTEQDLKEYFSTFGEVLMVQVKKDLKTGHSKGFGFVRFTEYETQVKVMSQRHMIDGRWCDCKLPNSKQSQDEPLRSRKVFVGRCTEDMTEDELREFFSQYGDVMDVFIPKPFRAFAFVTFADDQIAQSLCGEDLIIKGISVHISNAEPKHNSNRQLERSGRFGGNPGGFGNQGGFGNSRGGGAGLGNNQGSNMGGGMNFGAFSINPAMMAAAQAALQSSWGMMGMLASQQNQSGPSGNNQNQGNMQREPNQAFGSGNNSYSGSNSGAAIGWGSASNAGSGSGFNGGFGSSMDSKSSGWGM

| Compound | cell death of SH-SY5Y cells [1] [%] | TDP-43 phosphorylation in both the soluble fraction and insoluble fraction ([2]; 20 μM every 6 hours for a total of 48 hours) | TDP-43 aggregation induced by CK1δ ([2]; 40 μM every 6 hours for a total of 48 hours, compared with 20 μM) |
| --- | --- | --- | --- |
| C=C(CC)C(=O)c1ccc(OCC(=O)O)c(Cl)c1Cl [ethacrynic acid] | 69.97 | – | – |
| ppTDP: peptide covering the T25 site and S403 site of TDP-43, with a linker sequence between the blocking sequences and a TAT sequence (YGRKKRRQRRRDGTVLLGGGGFGSSMDSKSSG) | – | efficiently blocked | did not block TDP-43 aggregation induced by CK1δ more effectively |
